Assay [1] deals with T1, variant human BR3-Fc fusion.
T1 construct: produced in CHO cells; also called vBR3-Fc; vhBR3-Fc
The experiment in a line: competition ELISA on vhBR3-Fc against biotinylated 9.1.

The target in assay [2] is T2, human BR3 expressed on cells (human, UniProt Q96RJ3 1-184).
T2 construct: whole, on cells; also called BR3 on BJAB cells; cell surface BR3
The experiment in a line: BJAB cells, competition with biotin-BAFF.
Protocol: (§1) The diluted samples were added to the pelleted BJAB cells in 96 well plates as described above. After 45 min incubation on ice, the cells were washed twice with 200 μl cold assay buffer, and streptavidin-HRP (AMDEX, Amersham Biosciences, Piscataway, N.J.) diluted 1/5,000 in assay buffer was added (100 μl/well). The plates were incubated for a final 45 min on ice. After washing twice with cold assay buffer, color was developed using TMB, the reaction was stopped with H₃PO₄, and the plates were read as described above.

In assay [3] the target is T2, human BR3 expressed on cells. The experiment in a line: BJAB cell competitive binding assay against biotin-BAFF.
Protocol: BJAB cells, a human Burkitt lymphoma cell line, were cultured in RPMI media supplemented with 10% FBS, penicillin (100 U/ml, Gibco-Invitrogen, Carlsbad, Calif.), streptomycin (100 μg/ml, Gibco), and L-glutamine (10 mM). […] For binding assays, cells were washed with cold assay buffer (phosphate buffered saline (PBS), pH 7.4) containing 1% fetal bovine serum (FBS)). […] The plates containing the cells were centrifuged at 1200 rpm for 5 min at 4° C., and the supernatant was carefully aspirated away from the cell pellets. […] For these experiments, full length antibodies (IgG) were used.
as §1
In assay [4] the target is T1, variant human BR3-Fc fusion. In words: SPR, vBR3-Fc on chip.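 Also: Anti-BR3 antibodies passed over chip-bound BR3-Fc in PBS with 0.05% polysorbate 20, on and off rates fitted together globally to a 1:1 binding model.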 In general terms: Surface plasmon resonance follows binding to a sensor surface in real time, without labels.
Assay [5] concerns the target T2, human BR3 expressed on cells. In words: BJAB cells, direct binding.
Protocol: (§2) Direct and competitive binding assays were performed as follows. For the direct binding assay, IgG antibody samples were serially diluted in cold assay buffer to concentrations ranging between 300-0.02 nM. Samples (100 μl) were added to the pelleted cells, and the plates were incubated for 45 min on ice. An additional 100 μl assay buffer was then added to each well, and the plates were centrifuged at 1200 rpm for 5 min at 4° C. After carefully aspirating the supernatant, the cells were washed two additional times with 200 μl assay buffer. An anti-mouse IgG Fc-HRP or goat anti-human IgG Fc-HRP, as appropriate, was diluted 1/10,000 in cold assay buffer was added (100 μl/well, Jackson ImmunoResearch, West Grove, Pa.), and the plates were incubated on ice for 45 min. Following two washes with 200 μl cold assay buffer, tetramethyl benzidine (TMB, Kirkegaard & Perry Laboratories, Gaithersburg, Md.) was added, and color was allowed to develop for 10 min. One hundred microliters 1 M H₃PO₄ was added to stop the reaction. The plates were then read on a microplate reader at 450 nm with a 620 nm reference. In the direct binding assay, the indicated concentrations of mAbs were added to BJAB cells and bound mAb was detected.
For assay [6] the target is unchanged. The experiment in a line: BJAB cell direct binding assay, anti-mouse IgG Fc-HRP.
Protocol: For binding assays, cells were washed with cold assay buffer (phosphate buffered saline (PBS), pH 7.4) containing 1% fetal bovine serum (FBS)). […] The plates containing the cells were centrifuged at 1200 rpm for 5 min at 4° C., and the supernatant was carefully aspirated away from the cell pellets. […] For these experiments, full length antibodies (IgG) were used.
as §2
In assay [7] the target is T1, variant human BR3-Fc fusion. The experiment in a line: competition ELISA on vhBR3-Fc against biotinylated 11G9. A general note: An ELISA detects its analyte on a solid surface through an enzyme-linked reagent.
Assay [8] addresses T3, human BR3 displayed on phage, L37 alanine-scan mutant (human, UniProt Q96RJ3 1-61, limits assumed).
T3 construct: One position of the shotgun alanine scan of BR3 on phage
In words: shotgun alanine scan of phage-displayed BR3; F against wild type.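 Also: Phage-displayed BR3 shotgun alanine libraries, two selection rounds for anti-BR3 antibody binding, normalized to a display selection, F above 1 marks a harmful substitution, below 1 a beneficial one.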
Description: (§3) At the sites of mutation, wild-type codons were replaced with the corresponding shotgun alanine codon (Weiss, supra). […] Library 1 encoded shotgun codons at positions 17, 18, 20-23, 25, 27, 28, 30, and 33, while library 2 encoded shotgun codons at positions 26, 29, 31, 34, and 36-42. Each library contained 2×10⁹ members, allowing for complete representation of the theoretical diversity (>10⁴-fold excess).
(§4) The display selection was included in order to normalize the anti-BR3 antibody-binding selection for expression differences between library members. Phage eluted from each target were propagated in E. coli XL 1-blue; amplified phage were used for selection against the same target as in the previous round. After two rounds of selection, 48 individual clones from each library and selection were grown in a 96-well format in 400 L of 2YT medium supplemented with carbenicillin and KO7 helper phage.
(§5) F-values were calculated as previously described (Weiss, supra; Gordon, supra). […] Deleterious mutations have ratios >1, while advantageous mutations have ratios <1; boldface indicates a >10-fold effect.

The target of assay [9] is T4, human BR3 displayed on phage, V20 alanine-scan mutant (human, UniProt Q96RJ3 1-61, limits assumed).
T4 construct: One position of the shotgun alanine scan of BR3 on phage
The description is as above.
Description: as §3, §4, §5

For assay [10], the target named is T5, human BR3 displayed on phage, E23 alanine-scan mutant (human, UniProt Q96RJ3 1-61, limits assumed).
T5 construct: One position of the shotgun alanine scan of BR3 on phage
Described as above.
Description: as §3, §4, §5

Assay [11] deals with T6, human BR3 displayed on phage, P21 alanine-scan mutant (human, UniProt Q96RJ3 1-61, limits assumed).
T6 construct: One position of the shotgun alanine scan of BR3 on phage
The description is as above.
Description: as §3, §4, §5

For assay [12], the target named is T7, human BR3 displayed on phage, L27 alanine-scan mutant (human, UniProt Q96RJ3 1-61, limits assumed).
T7 construct: One position of the shotgun alanine scan of BR3 on phage
The assay is described as above.
Description: as §3, §4, §5

The target of assay [13] is T8, human BR3 displayed on phage, L38 alanine-scan mutant (human, UniProt Q96RJ3 1-61, limits assumed).
T8 construct: One position of the shotgun alanine scan of BR3 on phage
The assay is described as above.
Description: as §3, §4, §5

Assay [14] has as its target T9, human BR3 displayed on phage, D26 alanine-scan mutant (human, UniProt Q96RJ3 1-61, limits assumed).
T9 construct: One position of the shotgun alanine scan of BR3 on phage
The description is as above.
Description: as §3, §4, §5

Assay [15] deals with T10, human BR3 displayed on phage, R42 alanine-scan mutant (human, UniProt Q96RJ3 1-61, limits assumed).
T10 construct: One position of the shotgun alanine scan of BR3 on phage
The description is as above.
Description: as §3, §4, §5

The target in assay [16] is T11, human BR3 displayed on phage, P41 alanine-scan mutant (human, UniProt Q96RJ3 1-61, limits assumed).
T11 construct: One position of the shotgun alanine scan of BR3 on phage
The description is as above.
Description: as §3, §4, §5

In assay [17] the target is T12, human BR3 displayed on phage, R39 alanine-scan mutant (human, UniProt Q96RJ3 1-61, limits assumed).
T12 construct: One position of the shotgun alanine scan of BR3 on phage
Described as above.
Description: as §3, §4, §5

In assay [18] the target is T13, human BR3 displayed on phage, H31 alanine-scan mutant (human, UniProt Q96RJ3 1-61, limits assumed).
T13 construct: One position of the shotgun alanine scan of BR3 on phage
The assay is described as above.
Description: as §3, §4, §5

Assay [19] deals with T14, human BR3 displayed on phage, R30 alanine-scan mutant (human, UniProt Q96RJ3 1-61, limits assumed).
T14 construct: One position of the shotgun alanine scan of BR3 on phage
The assay is described as above.
Description: as §3, §4, §5

In assay [20] the target is human BR3 displayed on phage, mutated at A34 in the alanine scan (human, UniProt Q96RJ3 1-61, limits assumed). The assay is described as above.
Description: as §3, §4, §5
The target of assay [21] is T15, human BR3 displayed on phage, T40 alanine-scan mutant (human, UniProt Q96RJ3 1-61, limits assumed).
T15 construct: One position of the shotgun alanine scan of BR3 on phage
Described as above.
Description: as §3, §4, §5

Assay [22] concerns the target T16, human BR3 displayed on phage, L28 alanine-scan mutant (human, UniProt Q96RJ3 1-61, limits assumed).
T16 construct: One position of the shotgun alanine scan of BR3 on phage
Described as above.
Description: as §3, §4, §5

The target in assay [23] is T17, human BR3 displayed on phage, G36 alanine-scan mutant (human, UniProt Q96RJ3 1-61, limits assumed).
T17 construct: One position of the shotgun alanine scan of BR3 on phage
The description is as above.
Description: as §3, §4, §5

Assay [24] deals with T18, human BR3 displayed on phage, V29 alanine-scan mutant (human, UniProt Q96RJ3 1-61, limits assumed).
T18 construct: One position of the shotgun alanine scan of BR3 on phage
Described as above.
Description: as §3, §4, §5

The target of assay [25] is T19, human BR3 displayed on phage, V33 alanine-scan mutant (human, UniProt Q96RJ3 1-61, limits assumed).
T19 construct: One position of the shotgun alanine scan of BR3 on phage
Described as above.
Description: as §3, §4, §5

Assay [26] concerns the target T20, human BR3 displayed on phage, F25 alanine-scan mutant (human, UniProt Q96RJ3 1-61, limits assumed).
T20 construct: One position of the shotgun alanine scan of BR3 on phage
The description is as above.
Description: as §3, §4, §5

Assay [27] deals with T21, human BR3 displayed on phage, P18 alanine-scan mutant (human, UniProt Q96RJ3 1-61, limits assumed).
T21 construct: One position of the shotgun alanine scan of BR3 on phage
The assay is described as above.
Description: as §3, §4, §5

In assay [28] the target is T22, human BR3 displayed on phage, T17 alanine-scan mutant (human, UniProt Q96RJ3 1-61, limits assumed).
T22 construct: One position of the shotgun alanine scan of BR3 on phage; the F value gives the effect of this change against wild type; See m1 for the parent
Described as above.
Description: as §3, §4, §5

Assay [29] has as its target T23, human BAFF (residues 82-285) (human, UniProt Q9Y275 82-285).
T23 construct: range 82-285; also called biotin-BAFF; biotinylated BAFF
The experiment in a line: BJAB cell competitive binding assay: soluble BR3-Fc keeps biotin-BAFF from BR3 on the cells.

Assay [30] has as its target T24, human BR3 extracellular domain (human, UniProt Q96RJ3 1-61).
T24 construct: biotinylated where used as tracer; also called hBR3-ECD; BR3-ECD
The experiment in a line: SPR, BR3 ECD on chip.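 Also: Anti-BR3 antibodies passed over the chip at high flow in PBS with 0.05% polysorbate 20, on and off rates fitted together globally to a 1:1 binding model.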
Protocol: After coupling, unoccupied sites on the chip were blocked by injecting 20 μl of 1M ethanolamine, pH 8.5. The running buffer was PBS containing 0.05% polysorbate 20. […] The binding surface was regenerated by injecting 20-30 μl of 10 mM glycine.HCl (pH 1.5). […] Data were analyzed using a 1:1 binding model using global fitting. The association and dissociation rate constants were fitted simultaneously (BIAevaluation software).
A high flow rate was used in order to minimize mass transport effects.

Assay [31] has as its target T1, variant human BR3-Fc fusion. The experiment in a line: competition ELISA on vhBR3-Fc against biotinylated 2.1.
Assay [32] has as its target T24, human BR3 extracellular domain. The experiment in a line: SPR, IgG on chip, BR3 ECD in solution.
Assay [33] addresses human BR3 displayed on phage, mutated at A22 in the alanine scan (human, UniProt Q96RJ3 1-61, limits assumed). The experiment in a line: shotgun alanine scan of phage-displayed BR3; F against wild type.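 Also: Phage-displayed BR3 shotgun alanine libraries, two selection rounds for anti-BR3 antibody binding, normalized to a display selection, F above 1 marks a harmful substitution, below 1 a beneficial one.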
Description: as §3, §4, §5

Values joined by “and” are separate entries in the source; they are usually repeats but may differ in a detail not shown here. Identical values can stand only once.

This is an account of results in patent US20100280227A1 (Genentech, published 2010).

For orientation: IC50 means the concentration that gives 50% inhibition. Read a low IC50 as higher potency. What is called Kd is the concentration at which binding is half-saturated. What is called EC50 is the concentration giving half of the maximal effect. Usually koff stands for the rate constant with which the complex falls apart. One may read the kon as a measure of how fast the partners come together. High values mean fast association, low ones slow association.

T23 sequence (Q9Y275 82-285 limits assumed): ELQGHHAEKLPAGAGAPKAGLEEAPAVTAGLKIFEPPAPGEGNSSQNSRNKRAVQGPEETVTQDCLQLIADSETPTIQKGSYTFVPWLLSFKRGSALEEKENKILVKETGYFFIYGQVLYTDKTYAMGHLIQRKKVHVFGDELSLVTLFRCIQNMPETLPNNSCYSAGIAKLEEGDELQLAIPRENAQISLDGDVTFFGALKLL

B1: murine monoclonal antibody 9.1 (antibody, V domains shown)
VH: EVKLVESGGGLVQPGGSLRLSCAISGFTVTAYYMSWVRQPPGKALEWLGFIRDKANGYTTEYNPSVKGRFTISRDNSQSIFYLQMNTLRAEDSATYYCAQVRRALDYWGQGTTVTVSA
VL: DIVMSQSPSSLAVSVGEKVTMSCKSSQSLLYSSNQNNYLAWYQQKPGQSPKLLIYWASTRESGVPDRFTGSGSGTDFTLTISSVKAEDLAVYYCQQYYTYPYTFGGGT
notes: mouse hybridoma IgG; also called 9.1 IgG; mu9.1
As for B1, the “IC50 (read off the curve)” value in [1] is approximately 0.6 µg/mL; in assay [7] it was approximately 0.1 µg/mL. For the same molecule, the IC50 in assay [2] was determined as 1300 pM; in [3], 860 pM. In addition, in assay [4], binding was characterised by a dissociation constant (Kd) of 610 pM. For the same molecule, the EC50 in assay [5] was 540 pM; in assay [6], 460 pM.

B2: murine monoclonal antibody 11G9 (antibody, V domains shown)
VH: DVQLQESGPSLVKPSQTLSLTCSVTGDSITSGYWNWIRKFPGNKLEYMGYISYSGSTYYNPSLKSRISITRDTSKNQFYLQLLSVTTEDTATYYCAGLDGLYWYFDVWGAGTLVTVSS
VL: DIVMTQTPLSLPVSLGDQASISCRSSQSLVHSNGNTYLHWYLQKPGQSPKLLIYKVSNRFSGVPDRFSGSGSGTDFTLKISRVEAEDLGVYFCSQSTHVPPFTFGSGT
notes: mouse hybridoma IgG; also called mu11G9
Regarding B2, the IC50 in [2] was 380 pM; in assay [3], 290 pM. Besides, the 50% effective concentration (EC50) was determined as 190 pM in assay [5] and 170 pM in assay [6]. In [7], the “IC50 (read off the curve)” value was approximately 0.2 µg/mL. For the same molecule, the F value in assay [8] is 0.7; in assay [9], 1.1; in assay [10], 6.9; in [11], 40; in assay [12], 1.1; in assay [13] it was 0.9. Besides, the F value in [14] stood at 8.5; in assay [15], 0.9; in assay [16], 1.7; in [17] it was 3.1; in [18], 2.8; in assay [19] it was 1.7. In addition, the F value in [20] amounted to 32; in [21], 0.5; in assay [22] it was 0.4; in assay [23], 1.8; in assay [24], 1; in assay [25], 24. Moreover, the F value in assay [26] was 38; in assay [27], 0.5; in assay [28] it was 0.5.

B3: mouse BR3-Fc (Fc fusion)
chain: STGARRLRVRSQRSRDSSVPTQCNQTECFDPLVRNCVSCELFHTPDTGHTSSLEPGTALQPQEGQVTGDKKIVPRDCGCKPCICTVPEVSSVFIFPPKPKDVLTITLTPKVTCVVVDISKDDPEVQFSWFVDDVEVHTAQTQPREEQFNSTFRSVSELPIMHQDWLNGKEFKCRVNSAAFPAPIEKTISKTKGRPKAPQVYTIPPPKEQMAKDKVSLTCMITDFFPEDITVEWQWNGQPAENYKNTQPIMNTNGSYFVYSKLNVQKSNWEAGNTFTCSVLHEGLHNHHTEKSLSHSPGK
notes: (BR3 ECD fused to a murine Fc); also called mBR3-Fc; murine BR3-Fc
Regarding B3, the IC50 in assay [29] came to 12700 pM. In addition, the binding result in [6] was “no binding (tested: about 35 ng/ml as the axis is labelled)”.

B4: murine monoclonal antibody 2.1 (antibody, V domains shown)
VH: EVQLQESGPSLVKPSQTLSLTCSVTGDSITRGYWNWIRKFPGNKLEFMGYINYSGTTYYNPSLKSRISITRDTSKNQYYLQLNSVTTEDTATYYCATPHTYGAMDYWGQGTTLTVSA
VL: DIVLTQSPVSLAVSLGQRATISCRASESVDDYGISFMHWYQQKPGQPPKLLIYRASDLESGIPARFSGSGSGTDFTLTINPVETDDVAIYYCQQTSKDPWTFGGGT
notes: mouse hybridoma IgG; also called 2.1 IgG; mu2.1
As to B4, in assay [2], the IC50 was determined as 250 pM. The dissociation constant Kd is 50 pM in [30]; 80 pM and 70 pM in [4]; 150 pM in assay [32]. Further, the koff is 5.2e-05 s⁻¹ in [30]; 3.4e-05 s⁻¹ and 3.3e-05 s⁻¹ in assay [4]; 1.7e-05 s⁻¹ in [32]. In addition, the on-rate (kon) in assay [30] is 960000 M⁻¹ s⁻¹; in [4], 440000 M⁻¹ s⁻¹ and 470000 M⁻¹ s⁻¹; in [32], 110000 M⁻¹ s⁻¹. Besides, the “IC50 (read off the curve)” value is approximately 0.6 µg/mL in [31] and approximately 0.1 µg/mL in [7]. This molecule also gave a concentration giving a half-maximal response (EC50) in assay [5] of 160 pM. The F value in assay [8] amounted to 0.1; in assay [9], 3; in assay [33], 3.2; in [10] it was 9.6; in assay [11], 1.9; in [12], 0.8. For the same molecule, the F value in [13] was 0.9; in assay [14], 6.1; in assay [15] it was 1.8; in [16] it was 0.7; in assay [17], 0.5; in [18], 0.6. Also, the F value was 10 in assay [19]; 62 in assay [20]; 0.2 in [21]; 0.1 in assay [22]; 0.5 in assay [24]; 49 in assay [26]. Also, the F value amounted to 0.5 in assay [27] and 0.6 in [28].
